# Tested on: K4 kissing-loop RNA reporter
# Assay: apparent KD of K4 kissing-loop reporter; higher = weaker reporter binding
# Conditions: Eterna round: R107; input ligand: none
# Procedure: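 RNA-MaP round R107: designed RNA switches with theophylline, tryptophan, arginine or FMN aptamers are transcribed on-chip within common flanks. They are titrated with a labelled K4 kissing-loop RNA reporter in RNA-MaP buffer (100 mM Tris pH 7.5, 80 mM KCl, 4 mM MgCl2), without ligand or with the indicated ligand. Median apparent KD per design.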
# 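Also: bound reporter read as fluorescence of individual clusters on recovered sequencing chips by microscopy, with normalized cluster intensities fitted with a binding model.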
row,Sequence,apparent KD of K4 kissing-loop reporter
1,GUUUCAGUGAUGUUGGAAGGCGAGCGGGAUACCAGCCAAGACUCAGGCCCUUGGCAGCCCACAUAUCCCACGUAGAUAGUAGCUC [Same State - Theophylline A (Freestyle 14)],133 nM
2,GUGUAGAAGUGAGGAUAUCGAUUUAAGAAUAAGCAGUGAUGUUGCAAGCAGGAGGAAUAAGAUUAACGAGAAGGCGUGGAUAUAG [FMN B Exclusion; Euphoria Solution],125 nM
3,AACCGCCAGUCGGCCGCCACUCACAGCAGUGAUGUUGCUGAAAAUCUAAAAGAGUGAUGUUCUUAGAGGACCGGGACUCCAGGCG [Same State Tryptophan B GF 5],218 nM
4,AGCUCAGAGUGACUCGAUAAGAGUCACAAACGAGGACCGGUACGGCCGCCACUCGAAAUAAUGGGAGUGAUGUUCUCACUGAGCA [#SwitchBubble 3 #StaticStem #K4Late],1190 nM
5,CGCUCGAAAAUUAAGUGAGUGAUGUUCACUCGAGGACCGGUACGGCCGCCACUCGUCUUACGUUGAGACACUGCUCGUACUCAUA [theeternabot_exclusion_KL_Trp_A_38],900 nM
6,GAAGGUCAAAGACCUUCGUGCACACCUGAUACCAGUCGCGAAAGCGACCCUUGGCAGCAGGGCAGUGAUGUUGCCAGUGCACAAA [Omei KL Theo A SS A v5],191 nM
7,ACAUCGGUUGAGAGUGAUGUUCCUUGUGUUCGAGGACCGGUACGGCCGCCACUCGGGUAGAAAAUAACAGAUGUGUUUCCUUUUU [BDazzled - #18 SS Tryptophan A],171 nM
8,AUAUAGAGUGAUGUUCAUGAGUAUUUCGAAGGAGCGCUAAAUAAGGCAGGUAGGUCGCGGAAAAUAUAUAUAUAGAUAUAUAUAU [KL-SSArg-A29],535 nM
9,GCAGGACGAGGAGGAGGAUGAAUUACUGAAGGAGCGCAUAUUUUUGCAGGUAGGUCGCGGUAAAGAAGUAUAGUGAUGUUAUAUA [SSArgA.L],470 nM
10,UUCGAUCAGUGAUGUUGAUCAAUAGUCGAAGGAGCGCUAUAGAUAGCAGGUAGGUCGCGGCUACAGGGUGUUAAGACACCCAGAA [#13 K4 Arginine A Same State],453 nM
11,CCAUUCUGUUACGAUACCAGUCAAAUAUAUUUGAUCAAUACCCUCGCCGAGUGAUGUUCGGACCCUUGGCAGCGUCUGGGACAGG [ccdfmullin],710 nM
12,CCCUCACGAGUGAUGUUCGUAGGGUACAGUCAGGAUAUCAUGCGGUUGAGAAGGGACAGAAAGGGCGGCCACGGGUUGCUCAUUU [Issogeso],343 nM
13,UCGGCAGUGAACGAUACCAGCGUCACGUGGCUGGUGGUCACAUGAGUGAUGUUCAUGUAACGCCCUUGGCAGCGUGCGCGUACCG [KL-XTheo-B11],107 nM
14,UGAUACCAGACGGCCGCCACUCCCGUAAGUCAAAGACUUACGAAGAGAGUUAUCCAGUGAUGUUGGAGGACCGGGUCUGGUAUCU [FiskerMod 14 - Jieux - Exclusion - Tryptophan B],192 nM
15,CCGAGCCUGACGUAAGUCAGGCUCUGCGAGCGAGGACCGGUACGGCCGCCACUCGGUGCAGUGAUGUUGCAUGGCCGCAAGGCCG [#2 Exclusion - Tryptophan A Attempt #23 (HarryS)],235 nM
16,UAGUCCUAGUGAUGGUCAUCACGUGGCGGGCGAGGACCGGUACGGCCGCCACUCGACUUUGCAGUGAUGUUGCAAACCGGACAAU [Exclusion - Tryptophan A (Freestyle 20)],132 nM
17,CGCCGCAAGGCGAGCGCUCCCACUCCGGAAGGAGCGCCCGUAAGGGCAGGUAGGUCGCCGGAGUGAUGUUCCGGUGGAGGGCUCG [#2 Exclusion - Arginine A Attempt #14 (Inspired by Omei)],469 nM
18,UGAUACCAGACGGCCGCCACUGCACCAGUCAAUGACUGAGCGCGGUGGCGCUCAGUGAUGUUGAGCAGGACCGGGUCUGGUAUCU [Mod of Eli's TrypBX 8 v4],136 nM
19,CGCGCGCGCUUGAGAGGGCGCGCGCGAAGUGAGGAUAUUUAGGGAGAAAGAAGGCACUAUAAAAUAUAGUGAUGUUAUAUAAGGG [SSFMNA.E],468 nM
20,UUGUUUGGUUGAGAGGUUGGGCGAGAUGAUACCAGUAUAGUAUUGUACCCUUGGCAGCAUAGGAGAGAUAUAGUGAUGUUGUAUG [SSTheophA.W],457 nM
21,AAGCAGUCACUCAAAGCCAUCGAAGAUGGACGAGGACCGGUACGGCCGCCACUCGGAGUGAUGUUCCGAAGACUGCAAAAUAAAA,304 nM

# Same assay, conditions: Eterna round: R107; input ligand: theophylline 20 uM
row,Sequence,apparent KD of K4 kissing-loop reporter
1,CGCGCGCGUUUGAGAGGGCGCGCGCGAAGUGAGGAUAUUUAGGGAGAAAGAAGGCACUAUAAAAUAUAGUGAUGUUAUAUAAGGG [SSFMNA.F],469 nM
2,AAAAUAAUCCAGUGAUGUUGGUAUGCAGAUACCAGCGACGAAAGUCGCCCUUGGCAGCUGUGGACGUACAAAAUAAGUACGUCCU,979 nM
3,UUGCAAGAGUCGGCCGCCACUCCGGGCCCUAUAAAUGGGCGCAGUGAUGUUGCGGCUAGGCCUCUGAGGACCGGGACUUUGUAGC [Ateusraor],82.9 nM
4,AGAGAUAUAUGAGGAUAUGGGUUAGUUAAUGAGUUAGUUUUAGUGUUGUUUGGUUAGUGAUGUUAUUUAGAAGGCGUGAGUGAUG [cqqbmullin],112 nM
5,CAAACUCUGACGGCCGCCACUAAUCGUGUAACAGUGAUGUUGUUACAUCAAAGAUGGGUUGCGUGUAGGACCGGGUCGACGCAAA [theeternabot_exclusion_KL_Trp_B_48],111 nM
6,UGCUUAAUGGAAGGAUAUUAGGGUUCGACCGCGUAUCAUUGUUAGUCUGGCCAGUGAUGUUGGCCUUAAGAAGGUCCGCUACGGU [theeternabot_exclusion_KL_FMN_B_27],204 nM
7,GUUACGCAUGGAAGGAGCGCUCUCCGGUUGAUUGACACAGUGAUGUUGUGAUUCUACCGUAAGCAGGUAGGUCGCCAUGUGUAAC [Ex Arginine B K4 13],1050 nM
8,UUCGAAAGUCGAAGGAGCGCUGGCGGUCAUAGACUAUAUCUGUAGUGAUGUUACAGAUUCCAGCAGGUAGGUCGCGACAGAGACA [Arg B SS t18b],89.8 nM
9,AGUGGUGUAUCUUUUAAGAGUGAUGUUUUUCGAGGACCGGUACGGCCGCCACUCGAGUGAUGAGUGCGUCGUUGUGGUGAUUAGU [#14 K4 Tryptophan A Exclusion],688 nM
10,UGUCAUUGGUCUGAUACCAGUUGAUGACGAAUACGUCAACUGGAGUGAUGUUCCUAAAACAACCCUUGGCAGCAGACCGAUGACU [TheoBS 1 #SwitchBubble #StaticStem],709 nM
11,GGCAUGCGUAGAGUGAUGUUCUAAGAUGAUACCAGUGCGGAAACGCACCCUUGGCAGCAUCUGACUGGCAUGCCGGCGAAAGCCU,770 nM
12,GGAGAGGUCUUGUUUGGAUGUGUUUAAUGGCGAGGACCGGUACGGCCGCCACUCGGGUGAUGUUAGUGAUGUUGAUGUUGUGAUG ['oo'mullin],219 nM
13,ACGGAGUGAUGUUCCGGCCUCCCAGCAGAUACCAGCAGUCGCGAUUGCCCUUGGCAGCUGUCCGCGGCAUCCACUUGUAGCGGUA [theeternabot_exclusion_KL_Theo_A_12],222 nM
14,CCUAUCUCAUACGAUACCAGUGAAUUAAUAUUUAUAAGCAGUGAUGUUGCAUUCCAAGUACACCCUUGGCAGCGUAUGGGAUAGG [Ex Theophylline B K4 20],159 nM
15,UAUAUACAUUUAUUAAUUAAAGGUUCAGAAGGAGCGUGAAUUAACACAGGUAGGUCGCUGAGCGAGUGAUGUUCGCUAUAUGGUA [JR_ExcArginiA_Sub005],87.1 nM
16,UGACUGGACUGAAGGAGCGCUAAACUCCUAGUGAUGUUAGGAAAACGAGACAAAGUCUCGAGGCAGGUAGGUCGCAGUCUAGUCU [ArgBS 18 #SwitchBubble #StaticStem],128 nM

row,Sequence,apparent KD of K4 kissing-loop reporter
1,UCCAAUAUUUAUUGAUCCGCCUCGCAUCAACGAGGACCGGUACGGCCGCCACUCGUGCCUAGGUAGUGAUGUUACUUAGUUUACU [theeternabot_sameState_KL_Trp_A_32],188 nM
2,GCGUUAGUACUCGAUACCAGACCUCUAGUAGUGAUGUUGCUUGGCGAAGGCCUCGAACGAGUCCCUUGGCAGCGAGGAAAGAGGA [theeternabot_sameState_KL_Theo_B_4],376 nM
3,CAUAUACAAGUGAUGUUUGUACUAACCGAAGGAGCGUCGUUGAAGACAGGUAGGUCGCGGUUUAAGUUAGAUUAUAUAAUUCCAC [JR_Nu_SSArginiA_Sub027],715 nM
4,AGCUGUGGCAGAAGGAGCGACAGUUAUUCUGAUAGUACUCUGAGUGAUGUUCAGAACGACUGUCAGGUAGGUCGCUGUCACAGCU [#01 K4 Arginine B Exclusion],153 nM
5,CACCAUGAAUUCUCUAGGAGUGAUGUUUUUCGAGGACCGGUACGGCCGCCACUCGGACCAGGAACGUGGGAGCGGCGAAAAGACU [ttmullin],494 nM
6,GUUUCAGUGAUGUUGGAAGGCGAGCGGGAUACCAGCCAAGACUCAGGCCCUUGGCAGCCCACAUAUCCCACGUAGAUAGUAGCUC [Same State - Theophylline A (Freestyle 14)],153 nM
7,GUGUAGAAGUGAGGAUAUCGAUUUAAGAAUAAGCAGUGAUGUUGCAAGCAGGAGGAAUAAGAUUAACGAGAAGGCGUGGAUAUAG [FMN B Exclusion; Euphoria Solution],141 nM
8,AACCGCCAGUCGGCCGCCACUCACAGCAGUGAUGUUGCUGAAAAUCUAAAAGAGUGAUGUUCUUAGAGGACCGGGACUCCAGGCG [Same State Tryptophan B GF 5],56.7 nM
9,AGCUCAGAGUGACUCGAUAAGAGUCACAAACGAGGACCGGUACGGCCGCCACUCGAAAUAAUGGGAGUGAUGUUCUCACUGAGCA [#SwitchBubble 3 #StaticStem #K4Late],796 nM
10,CGCUCGAAAAUUAAGUGAGUGAUGUUCACUCGAGGACCGGUACGGCCGCCACUCGUCUUACGUUGAGACACUGCUCGUACUCAUA [theeternabot_exclusion_KL_Trp_A_38],722 nM
11,GAAGGUCAAAGACCUUCGUGCACACCUGAUACCAGUCGCGAAAGCGACCCUUGGCAGCAGGGCAGUGAUGUUGCCAGUGCACAAA [Omei KL Theo A SS A v5],164 nM
12,ACAUCGGUUGAGAGUGAUGUUCCUUGUGUUCGAGGACCGGUACGGCCGCCACUCGGGUAGAAAAUAACAGAUGUGUUUCCUUUUU [BDazzled - #18 SS Tryptophan A],181 nM
13,AUAUAGAGUGAUGUUCAUGAGUAUUUCGAAGGAGCGCUAAAUAAGGCAGGUAGGUCGCGGAAAAUAUAUAUAUAGAUAUAUAUAU [KL-SSArg-A29],665 nM
14,GCAGGACGAGGAGGAGGAUGAAUUACUGAAGGAGCGCAUAUUUUUGCAGGUAGGUCGCGGUAAAGAAGUAUAGUGAUGUUAUAUA [SSArgA.L],406 nM
15,UUCGAUCAGUGAUGUUGAUCAAUAGUCGAAGGAGCGCUAUAGAUAGCAGGUAGGUCGCGGCUACAGGGUGUUAAGACACCCAGAA [#13 K4 Arginine A Same State],477 nM
